Measured values published in patent US6670183.

What was measured:
[1] = target: GP88 cell surface receptors on CCL64 mink lung epithelial cells (mink); assay: Scatchard analysis, 125I-rGP88 displaced by cold rGP88 on CCL64 cells in suspension; low affinity class of sites
[2] = target: GP88 cell surface receptors on CCL64 mink lung epithelial cells (mink); assay: Scatchard analysis, 125I-rGP88 displaced by cold rGP88 on CCL64 cells in suspension; high affinity class of sites
[3] = target: GP88 cell surface receptors on CCL64 mink lung epithelial cells (mink); assay: Scatchard analysis, 125I-rGP88 on CCL64 cells; low affinity class of sites
[4] = target: GP88 cell surface receptors on CCL64 mink lung epithelial cells (mink); assay: Scatchard analysis, 125I-rGP88 on CCL64 cells; high affinity class of sites

B1: recombinant GP88 (rGP88), mouse GP88 expressed in baculovirus infected Sf9 insect cells (ligand)
chain: TQCPDGQFCPVACCLDQGGANYSCCNPLLDTWPRITSHHLDGSCQTHGHCPAGYSCLLTVSGTSSCCPFSKGVSCGDGYHCCPQGFHCSADGKSCFQMSDNPLGAVQCPGSQFECPDSATCCIMVDGSWGCCPMPQASCCEDRVHCCPHGASCDLVHTRCVSPTGTHTLLKKFPAQKTNSAVSLPFSVVCPDAKTQCPDDSTCCELPTGKYGCCPMPNAICCSDHLHCCPQDTVCDLIQSKCLSKNYTTDLLTKLPGYPVKEVKCDMEVSCPEGYTCCRLNTGAWGCCPFAKAVCCDDHIHCCPAGFQCHTEKGTCEMGILQVGWMKKVIAPLRLPDPQILKSDTPCDDFTRCPTNNTCCKLNSGDWGCCPIPEAVCCSDNQHCCPQGFTCLAQGYCQKGDTMVAGLEKIPARQTTPLQIGDIGCDQHTSCPVGQTCCPSLKGSWACCQLPHAVCCEDRQHCCPAGYTCNVKARTCEKDVDFIQPPVLLTLGPKVGNVECGEGHFCHDNQTCCKDSAGVWACCPYLKGVCCRDGRHCCPGGFHCSARGTKCLRKKIPRWDMFLRDPVPRPLL
modifications: the labelled form is 125I-iodinated by the chloramine T method (residues not stated)
- Kd [1]: 3.9 nM
- Kd [2]: 0.043 nM
- sites/cell [3]: 17000 sites/cell
- sites/cell [4]: 560 sites/cell
